The nanobody polyreactivity screen of Harvey et al. (2022)

Assay: yeast display, Sf9 membrane polyspecificity reagent, FACS + sequencing; frameworks hold sequencing errors
Method in brief: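 Sorting gates, low and high (top ~1%), were placed on anti-HA fluorescence to track expression and on streptavidin fluorescence to track reagent binding. A clone's polyreactivity label is taken from the gate it came out of. The reagent was 10% biotinylated, detergent-solubilized Sf9 membrane, applied for 1 hour at 4 °C to galactose-induced yeast display cells.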

Sequence	polyreactivity (PSR sort gate)
QVQLVESGGGLVQAGGSLRLSCAASGSIFAYYAMGWYRQAPGKERELVAAISYSGDGTYYADSVKGRFTISRDNAKNTVYFQMNSLKPEDTAVYYCAADWDGYFYKSNWDYNYWGQGTQVTVSS	low polyreactivity
QVQLVESGGGLDQAGGSLRLSCAASGSTLGYNAMGWYRQAPGKERVLVAAISRSGGITYYADSVKGRFTISRDTAKNTVYLQMNSLKPEDTAVYYCNAVDRTRYRPGNDYDYWGQGTQVTVSS	high polyreactivity
QVQLVESGGGLVQAGGSLRLSCAASGLIFPSYAMGWYRQAPGKERELVATINRGSRTNYADSVKGRFTISRDNAKNTVYLQMNSLKPEDTAVYYCAAHYTTFIPSPDGDYLGQGTQVTVSS	low polyreactivity
QVQIVHSGGGLVQAGGSLRLSCAASGRTIGGNAMGWYRQAPGKEWELVAAISYSDGSTYYADSVKGRFTISRDNAKNTVYLQMNSLKPEDTAVYYCAADRYAILLYAEDYWGQGTQVTVSS	low polyreactivity
QVQLVESGGGLVQAGGSLRLTCAASGSIFQPNMGWNRHAPGKERELVASITTGTTKYADSVKGRFTISRDNAKNTVYLQMNSLKPEDTAVYYCAADLQATVYLIFGYWGQGTQVTVSS	low polyreactivity
QVQLLESGGGLVQAGGSIRLSFADSAFIFTSYSIGRYRQAPGKEREFVAAISWTGGTYYADSVKGRFTISRDNAKNTVYFLINSLKPEDTAVYYCAVRYKRKGSGYRYYLYVYWGQGTQVTVSS	high polyreactivity
QVQLVESGGVLVQAGGSLRLSCAASGRTFFRYTMGWYRPAPGKERELVAAISRSDGSTYYADSVKGRFTISRDNAKNTVYLQMNSLKPEDTAVYYCAKSLPSGYYYWGQGTQVTVSS	low polyreactivity
QVQLVESGGGLVQAGGSLRLSCAASGSIISINAMGWYRQAPGKERELVAAITWSGGSTYYADSVKGRVTISRDNAKNTVYLQMNSLKPEDTAVYYCAAAFWFQRGTGYYTSKFDYWGQGTQVTVSS	low polyreactivity
QVQLVESGGGLVQAGGSLRLSCAASGRTIYRNAMGWYRQAPGKERELVAAISRSGGRTFYAYSVKGRFTISRDNAKNTVYLQMNSLKPEDTEVYYCADESYGVRLPSGYWGQGTQVTVSS	high polyreactivity
QVQLVESRGFLVQAGGSLRLSCAAYGSSFFTYAMGWYRQAPRKERELVAGINWSGGSTYADSVKGRFTMSRDNAKNTVYLQMNSLKPEDTAVYFCAAKYYSERSRYHYWGQGTQVTVSS	low polyreactivity
QVQLVESGGGLVQAGGSLRLSCAASGFIFRYNAMGWNRQAPGKERELVARINSGVSTNYADSVKGRFTISRDNAKNTVYLQMNSLKPEDTAVYYCNARVRRGYSRFDYWGQGTQVTVSS	high polyreactivity
QVQLVESGGGLVQAGGSLRLSCAASGYIFLYSTMGWYRQAPGKERELVAAITIGGGTYYADSVKGRFTISRDNAKNTVYLQMNSLKPEDTAVYYCNADYASYYRYSRPLEMNYWGQGTQVTVSS	low polyreactivity
QVQPVESRGGLVQAGGSLRLSCAASGRIFARNAQGWYRTAPGKERELVAAITYSSGRTYYADSVKGRFTISRDNAKNTVYLQMNSLKPEHTAVYYCADGKGYIGVSVSGGYGYWGPGTQVTVSS	high polyreactivity
QVQLVESGGGLVQAGGSLRLSCAASGRILDYNAMGWYRQAPGKERELVADISGSGDSTYYADSVKGRFTISRDNAKNTVYLQMNSLKPEDTAVYYCAASGAWDWWLGPYDDYYWGQGTQVTVSS	low polyreactivity
QVQLVESGGGLVQAGGSLRLSCAASGFIFQYYAMGWYRQAPGKERELVAAINRGGGTHYADSVKGRFTISRDNAKNTVYLQMNSLKPEDTAVYYCNKVYYWPGSRPSRYEYWGQGTQVTVSS	low polyreactivity
QVQLVESGGGLVQAGGSLRLSCAASGSTYVSNAMGWYRQAPGKERELVAAISKSGGSTYYGDSVKGRFSISRDTAKNTVYLQMNSLKPEDTAVYYCAASPARYWYGGKEYDYWGQGTQVTVSS	high polyreactivity
QVQLVESGGGLVQAGGSLRLSCAASGFIFIFYAMGWYRQAPGKERELVAAITWSDDSTYYADSVKGRFTISRDNAKNTVYLQMNSLKPEDTAVYYCAASYYWYHLRRKYDYWGQGTQVTVSS	low polyreactivity
